According to PMC11083199, “Cytokine Receptor-like Factor 1 (CRLF1) and Its Role in Osteochondral Repair” (Cells, 2024):

Biological target: the molecule itself
Assay: non-reducing and reducing SDS gel electrophoresis with immunoblot; conditioned medium of BMSCs transduced with AAV-CRLF1; NuPAGE SDS sample buffer without and with reducing agent, 70 °C for 10 min, 10% bis-Tris gels; blotted with antibodies specific for CRLF1 or CLC

B1: Cytokine receptor-like factor 1 (CRLF1) (natural protein, human, UniProt O75462 38-422, looked up)
chain: AHTAVISPQDPTLLIGSSLLATCSVHGDPPGATAEGLYWTLNGRRLPPELSRVLNASTLALALANLNGSRQRSGDNLVCHARDGSILAGSCLYVGLPPEKPVNISCWSKNMKDLTCRWTPGAHGETFLHTNYSLKYKLRWYGQDNTCEEYHTVGPHSCHIPKDLALFTPYEIWVEATNRLGSARSDVLTLDILDVVTTDPPPDVHVSRVGGLEDQLSVRWVSPPALKDFLFQAKYQIRYRVEDSVDWKVVDDVSNQTSCRLAGLKPGTVYFVQVRCNPFGIYGSKKAGIWSEWSHPTAASTPRSERPGPGGGACEPRGGEPSSGPVRRELKQFLGWLKKHAYCSNLSFRLYDQWRAWMQKSHKTRNQDEGILPSGRRGTARGPAR
notes: Cytokine receptor-like factor 1, human, full-length cDNA cloned into an AAV vector; released into the medium by BMSCs; Full-length cDNA was cloned into the backbone pENN.AAV.CB7.Cl.eGFP.WPRE.rBG (Addgene 105542 is the vector, not this construct); Bands: ~110 kDa non-reduced, 55 kDa reduced; also called CRLF1dim; CRLF1mon; source: human BMSCs transduced with AAV containing CRLF1, in conditioned …
**Q.** For B1, which “stoichiometry N” value is on record?
**A.** 2
